What was measured:
[1] = target: T1, myostatin mature C-terminal dimer (purified from conditioned medium of CHO cells) (UniProt O08689 268-376, limits assumed, radio-iodinated (chloramine T method) when used as the labeled ligand); experiment: inhibition of labeled myostatin binding to Act RIIB-transfected COS-7 cells, 4 °C; reference is the Ki of follistatin
T1 construct: mature; also called GDF-8; mature C-terminal peptide
T1 sequence (looked up): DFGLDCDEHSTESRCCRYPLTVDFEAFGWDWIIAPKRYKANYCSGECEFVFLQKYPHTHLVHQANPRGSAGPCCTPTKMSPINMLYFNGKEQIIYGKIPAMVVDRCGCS

[2] = target: GDF-8 receptor (cell surface binding proteins) on L6 myoblasts; experiment: receptor-ligand binding assay with I-125 labeled GDF-8 on myoblast cells
[3] = target: T1, myostatin mature C-terminal dimer …; experiment: inhibition of labeled myostatin binding to Act RIIB-transfected COS-7 cells, 4 °C
Description: Receptor binding. Purified myostatin was radioiodinated using the chloramine T method (Frolik, C. A., Wakefield, L. M., Smith, D. M. & Sporn, M. B. (1984) J Biol Chem 259, 10995-11000). COS-7 cells grown in 6 or 12 well plates were transfected with 1-2 μg pCMV5 or pCMV5/receptor construct using lipofectamine (Gibco, Rockville, Md.). Crosslinking experiments were carried out 2 days post transfection as described (Franzén, P., ten Dijke, P., Ichijo, H., Yamashita, H., Schultz, P., Heldin, C.-H. & Miyazono, K. (1993) Cell 75, 681-692). For quantitative receptor binding assays, cell monolayers were washed twice with PBS containing 1 mg/ml BSA and incubated with labeled myostatin in the presence or absence of various concentrations of unlabeled myostatin, pro peptide, or follistatin at 4° C. Cells were then washed 3 times with the same buffer, lysed in 0.5N NaOH, and counted in a gamma counter. Specific binding was calculated as the difference in bound myostatin between cells transfected with Act RIIB and cells transfected with vector.
The effect of the pro peptide and follistatin in vitro was then studied. Both the myostatin pro peptide and follistatin were capable of blocking the binding of the C-terminal dimer to Act RIIB. […]

Molecule: myostatin prodomain peptide (purified from CHO cell conditioned medium, HPLC fractions 35-37) (from UniProt O08689 25-267)
- fold Ki relative to follistatin [1]: 50 fold

Molecule: recombinant human GDF-8 (rhGDF-8) homodimer (from UniProt O14793 267-374) (ligand)
- Kd [2]: 0.37 nM

B1: follistatin (other, UniProt P19883-2 30-317, looked up)
chain: GNCWLRQAKNGRCQVLYKTELSKEECCSTGRLSTSWTEEDVNDNTLFKWMIFNGGAPNCIPCKETCENVDCGPGKKCRMNKKNKPRCVCAPDCSNITWKGPVCGLDGKTYRNECALLKARCKEQPELEVQYQGRCKKTCRDVFCPGSSTCVVDQTNNAYCVTCNRICPEPASSEQYLCGNDGVTYSSACHLRKATCLLGRSIGLAYEGKCIKAKSCEDIQCTGGKKCLWDFKVGRGRCSLCDELCPDSKSDEPVCASDNATYASECAMKEAACSSGVLLEVKHSGSCN
- Ki [3]: ~0.47 nM

Source: patent publication US20020157126A1 (published 2002)
